# Results published in patent US20090203610A1, “METHODS OF TREATING OBESITY OR DIABETES USING NT-4/5” (RINAT NEUROSCIENCE CORPORATION, priority 2004, published 2009).
# B1: NT-4/5: mature human neurotrophin-4/5 (SEQ ID NO:1), obtained from Genentech or produced in E. coli (protein, listed as Homo sapiens)
# chain: GVSETAPASRRGELAVCDAVSGWVTDRRTAVDLRGREVEVLGEVPAAGGSPLRQYFFETRCKADNAEEGGPGAGGGGCRGVDRRHWVSECKAKQSYVRALTADAQGRVGWRWIRIDTACVCTLLSRTGRA
# Legend:
# Format in all cases: in vivo
# db/db mice [1] = test: Blood insulin level by ELISA in db/db mice (Example 1); parameters: blood insulin level at T5 / blood insulin level at T12 / blood insulin level at T19 / blood insulin level at T26: unit not given here
# Procedure: (§1) A difference was considered significant for p<0.05.
# The blood insulin level was determined by ELISA using an Insulin ELIT Plus kit (ref. INSRAT01-8N, Eurobio, France).
# db/db mice [2] = test: HbA1c in db/db mice (Example 1)
# Procedure: as §1
# HbA1c levels were determined using an HbA1c kit (ref. 650262, Beckman Coulter, France) and a Synchron CX4 synchronizer. HbA1c is an indicator for blood glucose control over the last 2-3 months. The normal level of HbA1c in C57BL/6J mouse (determined by measuring 8 normal healthy C57BL/6J mice) was about 3.5%.
# db/db mice [3] = test: Food intake of db/db mice (Example 1); details: for food intake, mean: NT-4/5 20 mg/kg s.c., Rosiglitazone 3 mg/kg p.o.
# Procedure: (§2) Throughout the experiment period (T1-T26), daily individual body weights as well as food intake per cage were measured.
# db/db mice [4] = test: Body weight of db/db mice (Example 1); details: for body weight, mean / body weight expressed as % of baseline, mean: NT-4/5 20 mg/kg s.c., Rosiglitazone 3 mg/kg p.o.
# Procedure: as §2
# [5] = day 0, before treatment, NT-4/5 20 mg/kg s.c., Rosiglitazone 3 mg/kg p.o.
# [6] = day 12, NT-4/5 20 mg/kg s.c., Rosiglitazone 3 mg/kg p.o.
# [7] = day 12 vs day 0, NT-4/5 20 mg/kg s.c., Rosiglitazone 3 mg/kg p.o.
# [8] = day 26, NT-4/5 20 mg/kg s.c., Rosiglitazone 3 mg/kg p.o.
# [9] = day 26 vs day 0, NT-4/5 20 mg/kg s.c., Rosiglitazone 3 mg/kg p.o.
molecule,measurement,setting,value
B1,blood insulin level at T5,db/db mice [1]; T5,1.84
same,blood insulin level at T12,db/db mice [1]; T12,0.91
same,blood insulin level at T19,db/db mice [1]; T19,7.6
same,blood insulin level at T26,db/db mice [1]; T26,11.58
same,insulin levels T0,db/db mice [1]; [5],7.04 nM
same,insulin levels T5,"db/db mice [1]; day 5, NT-4/5 20 mg/kg s.c., Rosiglitazone 3 mg/kg p.o.",1.84 nM
same,insulin % effect T5-T0,"db/db mice [1]; day 5 vs day 0, NT-4/5 20 mg/kg s.c., Rosiglitazone 3 mg/kg p.o.",−72.0%
same,insulin levels T12,db/db mice [1]; [6],0.91 nM
same,insulin % effect T12-T0,db/db mice [1]; [7],−84.5%
same,insulin levels T19,"db/db mice [1]; day 19, NT-4/5 20 mg/kg s.c., Rosiglitazone 3 mg/kg p.o.",7.60 nM
same,insulin % effect T19-T0,"db/db mice [1]; day 19 vs day 0, NT-4/5 20 mg/kg s.c., Rosiglitazone 3 mg/kg p.o.",17.1%
same,insulin levels T26,db/db mice [1]; [8],11.58 nM
same,insulin % effect T26-T0,db/db mice [1]; [9],73.1%
same,insulin level relative to normal level,db/db mice [1]; normal about 0.118±0.010 nM,not reduced to normal level
same,HbA1c level decrease at T26,db/db mice [2]; T26 as compared to T0,30.4%
same,HbA1c T0,db/db mice [2]; [5],5.81%
same,HbA1c T12,db/db mice [2]; [6],5.82%
same,HbA1c % effect T12-T0,db/db mice [2]; [7],−0.2%
same,HbA1c T26,db/db mice [2]; [8],4.08%
same,HbA1c % effect T26-T0,db/db mice [2]; [9],−30.4%
same,food intakes,db/db mice [3]; 20 mg/kg s.c.,dramatically suppressed
same,"food intake, mean",db/db mice [3]; Day 1,104.1 g/kg/day
same,"food intake, mean",db/db mice [3]; Day 2,56.9 g/kg/day
same,"food intake, mean",db/db mice [3]; Day 3,90.7 g/kg/day
same,"food intake, mean",db/db mice [3]; Day 4,68.6 g/kg/day
same,"food intake, mean",db/db mice [3]; Day 5,44.1 g/kg/day
same,"food intake, mean",db/db mice [3]; Day 6,38.5 g/kg/day
same,"food intake, mean",db/db mice [3]; Day 7,43.1 g/kg/day
same,"food intake, mean",db/db mice [3]; Day 8,63.4 g/kg/day
same,"food intake, mean",db/db mice [3]; Day 9,45.6 g/kg/day
same,"food intake, mean",db/db mice [3]; Day 10,51.8 g/kg/day
same,"food intake, mean",db/db mice [3]; Day 11,56.2 g/kg/day
same,"food intake, mean",db/db mice [3]; Day 12,62.6 g/kg/day
same,"food intake, mean",db/db mice [3]; Day 13,42.3 g/kg/day
same,"food intake, mean",db/db mice [3]; Day 14,76.3 g/kg/day
same,"food intake, mean",db/db mice [3]; Day 15,69.9 g/kg/day
same,"food intake, mean",db/db mice [3]; Day 19,78.0 g/kg/day
same,"food intake, mean",db/db mice [3]; Day 20,79.1 g/kg/day
same,"food intake, mean",db/db mice [3]; Day 21,123.9 g/kg/day
same,"food intake, mean",db/db mice [3]; Day 22,114.4 g/kg/day
same,"food intake, mean",db/db mice [3]; Day 25,120.6 g/kg/day
same,"food intake, mean",db/db mice [3]; Day 26,116.3 g/kg/day
same,body weight during treatment,db/db mice [4]; 20 mg/kg s.c.,gradually lost weight during the treatment
same,"body weight, mean",db/db mice [4]; Day 0,41.8 g
same,"body weight expressed as % of baseline, mean",db/db mice [4]; Day 1,97.8 % of baseline
same,"body weight, mean",db/db mice [4]; Day 1,40.8 g
same,"body weight expressed as % of baseline, mean",db/db mice [4]; Day 2,95.7 % of baseline
same,"body weight, mean",db/db mice [4]; Day 2,40.0 g
same,"body weight expressed as % of baseline, mean",db/db mice [4]; Day 3,94.6 % of baseline
same,"body weight, mean",db/db mice [4]; Day 3,39.5 g
same,"body weight expressed as % of baseline, mean",db/db mice [4]; Day 4,92.9 % of baseline
same,"body weight, mean",db/db mice [4]; Day 4,38.8 g
same,"body weight expressed as % of baseline, mean",db/db mice [4]; Day 5,91.6 % of baseline
same,"body weight, mean",db/db mice [4]; Day 5,38.3 g
same,"body weight expressed as % of baseline, mean",db/db mice [4]; Day 6,88.5 % of baseline
same,"body weight, mean",db/db mice [4]; Day 6,37.0 g
same,"body weight expressed as % of baseline, mean",db/db mice [4]; Day 7,87.4 % of baseline
same,"body weight, mean",db/db mice [4]; Day 7,36.5 g
same,"body weight expressed as % of baseline, mean",db/db mice [4]; Day 8,87.3 % of baseline
same,"body weight, mean",db/db mice [4]; Day 8,36.5 g
same,"body weight expressed as % of baseline, mean",db/db mice [4]; Day 9,86.5 % of baseline
same,"body weight, mean",db/db mice [4]; Day 9,36.6 g
same,"body weight expressed as % of baseline, mean",db/db mice [4]; Day 10,85.4 % of baseline
same,"body weight, mean",db/db mice [4]; Day 10,36.1 g
